Read-outs that look alike come from different tables or passages of the source.
What was measured:
[1] = biological target: T1, VH2VL1-CD8ATD-CD137CSD-CD3zSSD fusion; experiment: Jurkat NFAT luciferase reporter assay with CD20-positive WSUDLCL2 target cells (5:1); no reporter activation, which the filing uses to exclude unspecific binding
T1 construct: Chimeric antigen receptor expressed on Jurkat NFAT reporter cells; also called VH2VL1 P329G-CAR
Description: (§1) Binding of the CAR to an immobilized adapter molecule (e.g. a tumor antigen bound adapter molecule) leads to CAR crosslinking resulting in T cell activation and in the expression of luciferase. […] The 384 well plate was centrifuged for 1 min at 300g and RT and incubated at 37° C. and 5% CO₂ in a humidity atmosphere. After 7h incubation 20% of the final volume of ONE-Glo™ Luciferase Assay (E6120, Promega) was added, and plates were centrifuged for 1 min at 350×g. Afterwards, the relative luminescence units (RLU) per s/well were measured immediately using a Tecan microplate reader. Concentration-response curves were fitted and EC₅₀ values were calculated using GraphPadPrism version 7. As p value the New England Journal of Medicine style was used as listed in GraphPadPrism 7. Meaning*=P≤0,033; **=P≤0,002; ***=P≤0.001.

[2] = biological target: T2, VL1VH3-CD8ATD-CD137CSD-CD3zSSD fusion; experiment: as above
T2 construct: Chimeric antigen receptor with the scFv in VL-VH order, expressed on Jurkat NFAT reporter cells; also called VL1VH3 P329G-CAR
Description: as §1

[3] = biological target: T3, VH3VL1-CD8ATD-CD137CSD-CD3zSSD fusion; experiment: as above
T3 construct: also called VH3VL1 P329G-CAR
Description: as §1

[4] = biological target: T4, VH1VL1-CD8ATD-CD137CSD-CD3zSSD fusion; experiment: as above
T4 construct: Chimeric antigen receptor expressed on Jurkat NFAT reporter cells; also called VH1VL1 P329G-CAR
Description: as §1

[5] = biological target: T1, VH2VL1-CD8ATD-CD137CSD-CD3zSSD fusion; experiment: cell-based or functional assay
[6] = biological target: T2, VL1VH3-CD8ATD-CD137CSD-CD3zSSD fusion; experiment: cell-based or functional assay
[7] = biological target: T3, VH3VL1-CD8ATD-CD137CSD-CD3zSSD fusion; experiment: cell-based or functional assay
[8] = biological target: T4, VH1VL1-CD8ATD-CD137CSD-CD3zSSD fusion; experiment: cell-based or functional assay
[9] = biological target: T1, VH2VL1-CD8ATD-CD137CSD-CD3zSSD fusion; experiment: cell-based or functional assay; remark: listed apart in the source
[10] = biological target: T2, VL1VH3-CD8ATD-CD137CSD-CD3zSSD fusion; experiment: cell-based or functional assay; remark: listed apart in the source
[11] = biological target: T3, VH3VL1-CD8ATD-CD137CSD-CD3zSSD fusion; experiment: cell-based or functional assay; remark: listed apart in the source
[12] = biological target: T4, VH1VL1-CD8ATD-CD137CSD-CD3zSSD fusion; experiment: cell-based or functional assay; remark: listed apart in the source
[13] = biological target: T1, VH2VL1-CD8ATD-CD137CSD-CD3zSSD fusion; experiment: Jurkat NFAT luciferase reporter assay with CD20-positive WSUDLCL2 target cells (5:1); no reporter activation, which the filing uses to exclude unspecific binding; remark: listed apart in the source
Description: as §1

[14] = biological target: T2, VL1VH3-CD8ATD-CD137CSD-CD3zSSD fusion; experiment: as above; remark: listed apart in the source
Description: as §1

[15] = biological target: T3, VH3VL1-CD8ATD-CD137CSD-CD3zSSD fusion; experiment: as above; remark: listed apart in the source
Description: as §1

[16] = biological target: T4, VH1VL1-CD8ATD-CD137CSD-CD3zSSD fusion; experiment: as above; remark: listed apart in the source
Description: as §1

T3 sequence (chain, as listed by the source): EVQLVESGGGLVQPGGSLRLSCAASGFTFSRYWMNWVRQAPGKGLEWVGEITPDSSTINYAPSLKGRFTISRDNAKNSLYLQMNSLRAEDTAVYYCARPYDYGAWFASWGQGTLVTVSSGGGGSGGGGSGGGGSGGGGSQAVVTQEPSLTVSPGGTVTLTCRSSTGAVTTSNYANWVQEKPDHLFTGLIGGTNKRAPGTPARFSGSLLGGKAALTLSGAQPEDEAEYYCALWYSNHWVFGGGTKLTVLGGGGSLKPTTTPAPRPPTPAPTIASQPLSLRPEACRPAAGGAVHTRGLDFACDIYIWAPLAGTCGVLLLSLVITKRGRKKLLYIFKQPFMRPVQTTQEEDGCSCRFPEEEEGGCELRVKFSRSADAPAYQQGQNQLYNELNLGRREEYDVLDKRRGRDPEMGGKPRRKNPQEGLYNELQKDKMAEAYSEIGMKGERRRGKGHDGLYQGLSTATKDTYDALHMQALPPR
T4 sequence (chain, as listed by the source): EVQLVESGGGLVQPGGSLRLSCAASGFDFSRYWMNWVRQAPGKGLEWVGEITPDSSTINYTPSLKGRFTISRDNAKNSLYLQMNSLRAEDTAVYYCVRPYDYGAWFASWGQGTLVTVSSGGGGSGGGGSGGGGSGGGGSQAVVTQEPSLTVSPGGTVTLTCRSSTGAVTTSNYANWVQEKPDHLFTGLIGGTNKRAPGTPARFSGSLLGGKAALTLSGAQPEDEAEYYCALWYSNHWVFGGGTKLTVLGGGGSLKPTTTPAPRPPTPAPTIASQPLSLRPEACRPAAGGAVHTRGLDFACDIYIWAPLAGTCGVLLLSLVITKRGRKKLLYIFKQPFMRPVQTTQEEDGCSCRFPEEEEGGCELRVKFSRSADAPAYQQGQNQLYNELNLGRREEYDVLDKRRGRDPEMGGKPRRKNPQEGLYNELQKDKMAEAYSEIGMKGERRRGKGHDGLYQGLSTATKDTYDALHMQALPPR
T1 sequence (chain, as listed by the source): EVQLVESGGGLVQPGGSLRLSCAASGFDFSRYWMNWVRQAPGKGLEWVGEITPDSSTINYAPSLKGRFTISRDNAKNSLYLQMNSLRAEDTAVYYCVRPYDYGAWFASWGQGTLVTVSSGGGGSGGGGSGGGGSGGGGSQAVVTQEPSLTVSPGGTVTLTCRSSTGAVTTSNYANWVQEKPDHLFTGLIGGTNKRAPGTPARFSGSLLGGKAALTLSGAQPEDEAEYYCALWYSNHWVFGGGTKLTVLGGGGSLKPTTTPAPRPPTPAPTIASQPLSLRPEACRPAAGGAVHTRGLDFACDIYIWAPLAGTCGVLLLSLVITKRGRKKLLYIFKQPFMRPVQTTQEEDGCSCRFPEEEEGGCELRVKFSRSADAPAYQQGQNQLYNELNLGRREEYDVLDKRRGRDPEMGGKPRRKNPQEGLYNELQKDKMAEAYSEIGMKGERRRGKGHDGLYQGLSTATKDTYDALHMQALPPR
T2 sequence (chain, as listed by the source): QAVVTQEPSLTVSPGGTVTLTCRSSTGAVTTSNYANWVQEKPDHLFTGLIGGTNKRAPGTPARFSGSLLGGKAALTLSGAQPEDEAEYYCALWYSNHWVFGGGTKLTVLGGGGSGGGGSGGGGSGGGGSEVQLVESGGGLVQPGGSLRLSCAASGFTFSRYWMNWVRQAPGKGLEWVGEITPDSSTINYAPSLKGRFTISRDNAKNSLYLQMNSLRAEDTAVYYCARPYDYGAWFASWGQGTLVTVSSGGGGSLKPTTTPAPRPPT

Row | binding result [1] | binding result [2] | binding result [3] | binding result [4] | EC50 printed in the drawn table (row 'VH2 x VL1') for the Jurkat NFAT reporter assay with WSUDLCL2 cells; it is a fit of a flat curve at background and no activation is seen [5] | EC50 printed in the drawn table (row 'VL1 x VH 3') for the Jurkat NFAT reporter assay with WSUDLCL2 cells; it is a fit of a flat curve at background and no activation is seen [6] | EC50 printed in the drawn table (row 'VH3 x VL1') for the Jurkat NFAT reporter assay with WSUDLCL2 cells; it is a fit of a flat curve at background and no activation is seen [7] | EC50 printed in the drawn table (row 'VH1 x VL1') for the Jurkat NFAT reporter assay with WSUDLCL2 cells; it is a fit of a flat curve at background and no activation is seen [8] | EC50 printed in the drawn table (row 'VH2 x VL1') for the Jurkat NFAT reporter assay with WSUDLCL2 cells; it is a fit of a flat curve at background and no activation is seen [9] | EC50 printed in the drawn table (row 'VL1 x VH 3') for the Jurkat NFAT reporter assay with WSUDLCL2 cells; it is a fit of a flat curve at background and no activation is seen [10] | EC50 printed in the drawn table (row 'VH3 x VL1') for the Jurkat NFAT reporter assay with WSUDLCL2 cells; it is a fit of a flat curve at background and no activation is seen [11] | EC50 printed in the drawn table (row 'VH1 x VL1') for the Jurkat NFAT reporter assay with WSUDLCL2 cells; it is a fit of a flat curve at background and no activation is seen [12] | binding result [13] | binding result [14] | binding result [15] | binding result [16] | Binder
1 | no binding (tested: 67 nM) | no binding (tested: 67 nM) | no binding (tested: 67 nM) | no binding (tested: 67 nM) | 0.000119 pM | ~78.3 pM | ~85 pM | ~2.19 pM | – | – | – | – | – | – | – | – | anti-CD20 (GA101) wild type IgG1 (antibody, also called GA101 Fc wildtyp) heavy: not shown light: DIVMTQTPLSLPVTPGEPASISCRSSKSLLHSNGITYLYWYLQKPGQSPQLLIYQMSNLVSGVPDRFSGSGSGTDFTLKISRVEAEDVGVYYCAQNLELPYTFGGGTKVEIKRTVAAPSVFIFPPSDEQLKSGTASVVCLLNNFYPREAKVQWKVDNALQSGNSQESVTEQDSKDSTYSLSSTLTLSKADYEKHKVYACEVTHQGLSSPVTKSFNRGEC
2 | – | – | – | – | – | – | – | – | ~0 pM | ~0.000234 pM | ~1.61e+07 mM | ~0.0485 pM | no binding (tested: 67 nM) | no binding (tested: 67 nM) | no binding (tested: 67 nM) | no binding (tested: 67 nM) | anti-CD20 (GA101) LALA IgG1 (antibody) heavy: not shown light: DIVMTQTPLSLPVTPGEPASISCRSSKSLLHSNGITYLYWYLQKPGQSPQLLIYQMSNLVSGVPDRFSGSGSGTDFTLKISRVEAEDVGVYYCAQNLELPYTFGGGTKVEIKRTVAAPSVFIFPPSDEQLKSGTASVVCLLNNFYPREAKVQWKVDNALQSGNSQESVTEQDSKDSTYSLSSTLTLSKADYEKHKVYACEVTHQGLSSPVTKSFNRGEC

Source: US20230322950A1 (Hoffmann-La Roche, published 2023)
